Patent publication US20240076387A1 (published 2024)
“And” between values parts separate entries of the source, which are not always exact repeats. Equal values may be shown once. Values belong to the binder of their own block, whether it stands above or below them.

Tests used:
[1] = molecular target: T1, Flt-1 antigen (species not stated) (Homo sapiens (Human), UniProt P17948 27-656); assay: Biacore
T1 construct: also called sFlt-1; soluble Flt-1

[2] = molecular target: T1, Flt-1 antigen (species not stated at …); assay: surface plasmon resonance (Biacore), EXP 1
[3] = molecular target: T1, Flt-1 antigen (species not stated at …); assay: off-rate of Fabs, method not stated
[4] = molecular target: T1, Flt-1 antigen (species not stated at …); assay: kinetics, method not stated (Table 7)
[5] = molecular target: T1, Flt-1 antigen (species not stated at …); assay: surface plasmon resonance (Biacore), EXP 2
[6] = molecular target: T1, Flt-1 antigen (species not stated at …); assay: kinetics of Table 7; 'increased' is said of a higher affinity (lower KD)
[7] = molecular target: T1, Flt-1 antigen (species not stated at …); assay: surface plasmon resonance (Biacore); reference not named

T1 sequence (P17948 other isoform, or with tags, fused parts or gaps limits assumed, form in doubt): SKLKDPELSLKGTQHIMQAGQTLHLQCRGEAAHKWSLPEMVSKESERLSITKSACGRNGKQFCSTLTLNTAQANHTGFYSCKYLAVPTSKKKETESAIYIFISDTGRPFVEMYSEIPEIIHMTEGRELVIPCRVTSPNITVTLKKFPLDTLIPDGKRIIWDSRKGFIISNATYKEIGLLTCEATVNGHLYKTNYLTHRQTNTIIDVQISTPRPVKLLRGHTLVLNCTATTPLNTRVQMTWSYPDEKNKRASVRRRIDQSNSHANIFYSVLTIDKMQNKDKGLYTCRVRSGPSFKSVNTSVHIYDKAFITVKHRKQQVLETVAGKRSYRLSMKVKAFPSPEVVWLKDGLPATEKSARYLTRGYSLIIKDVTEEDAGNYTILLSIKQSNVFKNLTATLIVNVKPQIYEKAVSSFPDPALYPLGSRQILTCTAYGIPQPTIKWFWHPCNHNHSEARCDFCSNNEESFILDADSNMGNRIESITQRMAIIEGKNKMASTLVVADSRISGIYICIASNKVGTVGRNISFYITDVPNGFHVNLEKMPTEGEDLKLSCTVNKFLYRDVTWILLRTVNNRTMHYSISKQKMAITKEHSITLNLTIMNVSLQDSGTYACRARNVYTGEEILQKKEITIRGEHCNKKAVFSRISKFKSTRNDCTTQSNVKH

- Kd [1]: 0.26 nM
- koff [1]: 8.4e-05 s⁻¹
- kon [1]: 330000 M⁻¹ s⁻¹
- Kd [2]: 0.23 nM and 0.26 nM
- koff [2]: 7.9e-05 s⁻¹ and 8.4e-05 s⁻¹
- kon [2]: 350000 M⁻¹ s⁻¹ and 330000 M⁻¹ s⁻¹
B1: 27H9 (antibody, human IgG1, lambda, V domains shown)
VH: EVQLLESGGGLVQPGGSLRLSCAASGFTFRDYSMSWVRQAPGKGLEWVSAISWNGDSTYYAESAKGRFTISRDNSKNTLYLQMNSLRAEDTAVYYCAKSWATPIESLYYYGSDYWGQGTLVTVSS
VL: SYELTQPLSVSVALRQTARITCGGNNIGSQTAQWYQQKPGQAPVLVIYANNRRPSGIPERFSGSKSGNTATLTISRAQAEDEADYYCQVWDESTQAIVFGGGTKLTVLG
notes: also called 27H9 WT; 27H9 WT 23/07

- kd IMPROVEMENT (against parent 21B3) [3]: 1.12
B2: 27H9 Fab (Fab, V domains shown)
VH: EVQLLESGGGLVQPGGSLRLSCAASGFTFRDYSMSWVRQAPGKGLEWVSAISWNGDSTYYAESAKGRFTISRDNSKNTLYLQMNSLRAEDTAVYYCAKSWATPIESLYYYGSDYWGQGTLVTVSS
VL: SYELTQPLSVSVALRQTARITCGGNNIGSQTAQWYQQKPGQAPVLVIYANNRRPSGIPERFSGSKSGNTATLTISRAQAEDEADYYCQVWDESTQAIVFGGGTKLTVL
notes: also called 27H9_VH

- Kd [1]: 0.32 nM
- koff [1]: 0.00017 s⁻¹
- kon [1]: 540000 M⁻¹ s⁻¹
- Kd [4]: 0.0848 nM
- koff [4]: 4.73e-05 s⁻¹
- kon [4]: 558000 M⁻¹ s⁻¹
- Kd [5]: 0.32 nM
- koff [5]: 0.00017 s⁻¹
- kon [5]: 540000 M⁻¹ s⁻¹
- fold change of KD against parent antibody 13B4 [6]: ~5 fold
B3: 21B3 (antibody, V domains shown)
VH: ELQLVESGGGLVQPGGSLRLSCAASGFTFRDYSMSWVRQAPGKGLEWVSAISWNGDSTYYAESMKGRFTISRDNAKNTLYLQMNSLKSEDTAVYYCAKSWATPIESLYYYGMDYWGKGTLVTVSS
VL: SYELTQSPSVSVALRQTAKITCGGNNIGSQTAQWYQQKPGQAPVLVIYANNRRPSGIPERFSGSKSGNTATLTISGAQAEDEADYYCQVWDGSTQAIVFGGGTHLTVL
notes: also called 21B3 WT; antibody 21B3

- Kd [5]: 0.21 nM
- koff [5]: 0.00011 s⁻¹
- kon [5]: 520000 M⁻¹ s⁻¹
B4: 21B3 AAA (antibody, human IgG1, lambda, V domains shown)
VH: ELQLVESGGGLVQPGGSLRLSCAASGFTFRDYSMSWVRQAPGKGLEWVSAISWNGDSTYYAESMKGRFTISRDNAKNTLYLQMNSLKSEDTAVYYCAKSWATPIESLYYYGMDYWGKGTLVTVSS
VL: SYELTQSPSVSVALRQTAKITCGGNNIGSQTAQWYQQKPGQAPVLVIYANNRRPSGIPERFSGSKSGNTATLTISGAQAEDEADYYCQVWDGSTQAIVFGGGTHLTVLG
notes: AAA mutation in the Fc region

- Kd [2]: 0.36 nM
- koff [2]: 0.00013 s⁻¹
- kon [2]: 370000 M⁻¹ s⁻¹
B5: 27H9 NG/QG (antibody, human IgG1, lambda, V domains shown)
VH: EVQLLESGGGLVQPGGSLRLSCAASGFTFRDYSMSWVRQAPGKGLEWVSAISWQGDSTYYAESAKGRFTISRDNSKNTLYLQMNSLRAEDTAVYYCAKSWATPIESLYYYGSDYWGQGTLVTVSS
VL: SYELTQPLSVSVALRQTARITCGGNNIGSQTAQWYQQKPGQAPVLVIYANNRRPSGIPERFSGSKSGNTATLTISRAQAEDEADYYCQVWDESTQAIVFGGGTKLTVLG

- kd IMPROVEMENT (against parent 21B3) [3]: 1.06
B6: 27H4 Fab (Fab, V domains shown)
VH: ELQLVESGGGLVQPGGSLRLSCAASGFTFRDYSMSWVRQAPGKGLEWVSAISWNGDSTYYAESLKGRFTISRDNAKNTLYLQMNSLRAEDTAVYYCAKSWATPIESLYYYGSDYWGQGTLVTVSS
VL: SYELTQPLSVSVALGQTARITCGGNNIGSQTAQWYQQKPGQAPVLVIYANNRRPSGIPERFSGSKSGNTATLTISRAQAEDEADYYCQVWEDSTQAIVFGGGTKLTVL
notes: also called 27H4_VH

- Kd [2]: 0.39 nM
- koff [2]: 0.00011 s⁻¹
- kon [2]: 290000 M⁻¹ s⁻¹
- Kd [5]: 0.51 nM
- koff [5]: 0.00015 s⁻¹
- kon [5]: 290000 M⁻¹ s⁻¹
B7: 27H9 NG/NA (antibody, human IgG1, lambda)
heavy: not shown
light: SYELTQPLSVSVALRQTARITCGGNNIGSQTAQWYQQKPGQAPVLVIYANNRRPSGIPERFSGSKSGNTATLTISRAQAEDEADYYCQVWDESTQAIVFGGGTKLTVLGQPKAAPSVTLFPPSSEELQANKATLVCLISDFYPGAVTVAWKADSSPVKAGVETTTPSKQSNNKYAASSYLSLTPEQWKSHRSYSCQVTHEGSTVEKTVAPTECS

- Kd [5]: 0.51 nM
- koff [5]: 0.00015 s⁻¹
- kon [5]: 290000 M⁻¹ s⁻¹
- fold reduced binding affinity [7]: ~2 fold
B8: 27H9 NG/NA AAA (antibody, human IgG1, lambda)
heavy: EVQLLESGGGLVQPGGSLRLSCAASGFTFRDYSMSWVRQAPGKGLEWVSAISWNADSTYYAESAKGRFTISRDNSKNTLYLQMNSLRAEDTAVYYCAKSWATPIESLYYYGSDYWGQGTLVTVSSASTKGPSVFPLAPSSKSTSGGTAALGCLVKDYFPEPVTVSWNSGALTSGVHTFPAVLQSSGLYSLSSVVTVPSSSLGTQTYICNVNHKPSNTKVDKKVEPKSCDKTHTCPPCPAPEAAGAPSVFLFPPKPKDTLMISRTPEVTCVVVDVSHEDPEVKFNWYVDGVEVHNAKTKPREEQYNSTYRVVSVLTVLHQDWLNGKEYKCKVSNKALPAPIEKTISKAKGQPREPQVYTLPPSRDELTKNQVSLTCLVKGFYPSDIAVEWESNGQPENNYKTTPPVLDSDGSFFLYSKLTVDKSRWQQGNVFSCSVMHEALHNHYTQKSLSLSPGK
light: SYELTQPLSVSVALRQTARITCGGNNIGSQTAQWYQQKPGQAPVLVIYANNRRPSGIPERFSGSKSGNTATLTISRAQAEDEADYYCQVWDESTQAIVFGGGTKLTVLGQPKAAPSVTLFPPSSEELQANKATLVCLISDFYPGAVTVAWKADSSPVKAGVETTTPSKQSNNKYAASSYLSLTPEQWKSHRSYSCQVTHEGSTVEKTVAPTECS
notes: also called 27H9_NA_+_AAA; 27H9 NA + AAA

- Kd [1]: 0.16 nM
- koff [1]: 0.00014 s⁻¹
- kon [1]: 910000 M⁻¹ s⁻¹
B9: 27H6 (antibody, human IgG1, lambda, V domains shown)
VH: ELQLVESGGGLVQPGGSLRLSCAASGFTFSDYSASWVRQAPGKGLEWVSAISWSGDSTYYAESVKGRFTIFRDNSKNTLYLQMNSLRAEDTAVYYCAKSWATPIESLYYYGSDYWGQGTLVTVSS
VL: SYELTQPLSVSVALRQAAKITCGGNNIGSQTAQWYQQKPGQAPVLVIYANNRRPSGIPERFSGSKSGNTATLTISRAQAGDEADYYCQVWDGSTQAIVFGGGTKLTVLG
notes: also called 27H6 WT; antibody 27H6

- kd IMPROVEMENT (against parent 21B3) [3]: 1
B10: 25F11 Fab (Fab, V domains shown)
VH: EVQLLESGGGLVQPGGSLRLSCAASGFTFRDYSMSWVRQAPGKGLEWVSAISWNGDSTYYAESAKGRFTISRDNSKNTLYLQMNSLRAEDTAVYYCAKSWATPIESLYYYGSDYWGQGTLVTVSS
VL: SYELTQPLSVSVALRQAARITCGGNNIGSQTAQWYQQKPGQAPVLVIYANNRRPSGIPERFSGSKSGNTATLTISRAQAEDEADYYCQVWEASTQAIVFGGGTKLTVL
notes: also called 25F11_VH

- kd IMPROVEMENT (against parent 21B3) [3]: 0.96
B11: 27H6 Fab (Fab, V domains shown)
VH: ELQLVESGGGLVQPGGSLRLSCAASGFTFSDYSASWVRQAPGKGLEWVSAISWSGDSTYYAESVKGRFTIFRDNSKNTLYLQMNSLRAEDTAVYYCAKSWATPIESLYYYGSDYWGQGTLVTVSS
VL: SYELTQPLSVSVALRQAAKITCGGNNIGSQTAQWYQQKPGQAPVLVIYANNRRPSGIPERFSGSKSGNTATLTISRAQAGDEADYYCQVWDGSTQAIVFGGGTKLTVL
notes: also called 27H6_VH

- Kd [1]: 0.25 nM
- koff [1]: 8.2e-05 s⁻¹
- kon [1]: 340000 M⁻¹ s⁻¹
B12: 27H4 (antibody, human IgG1, lambda, V domains shown)
VH: ELQLVESGGGLVQPGGSLRLSCAASGFTFRDYSMSWVRQAPGKGLEWVSAISWNGDSTYYAESLKGRFTISRDNAKNTLYLQMNSLRAEDTAVYYCAKSWATPIESLYYYGSDYWGQGTLVTVSS
VL: SYELTQPLSVSVALGQTARITCGGNNIGSQTAQWYQQKPGQAPVLVIYANNRRPSGIPERFSGSKSGNTATLTISRAQAEDEADYYCQVWEDSTQAIVFGGGTKLTVLG
notes: also called 27H4 WT; antibody 27H4

- kd IMPROVEMENT (against parent 21B3) [3]: 0.94
B13: 25D4 Fab (Fab, V domains shown)
VH: EVQLLESGGGLVQPGGSLRLSCAASGFTFRDYSASWVRQAPGKGLEWVSAISWNGDSTYYAESVKGRFTISRDNAKNTLYLQMNSLRAEDTAVYYCAKSWATPIESLYYYGSDYWGQGTLVTVSS
VL: SYELTQPLSVSVALGQTARITCGGNNIGSQTAQWYQQKPGQAPVLVIYANNRRPSGIPERFSGSKSGNTATLTISGAQAEDEADYYCQVWAASTQAIVFGGGTKLTVL
notes: also called 25D4_VH

- kd IMPROVEMENT (against parent 21B3) [3]: 0.97
B14: 25G9 Fab (Fab, V domains shown)
VH: EVQLLESGGGLVQPGGSLRLSCAASGFTFRDYSMSWVRQAPGKGLEWVSAITWSGDSTYYAESVKGRFTISRDNSKNTLYLQMNSLRAEDTAVYYCAKSWATPIESLYYYGTDYWGKGTLVTVSS
VL: SYELTQPLSVSVALRQAARITCGGNNIGSQTAQWYQQKPGQAPVLVIYANNRRPSGIPERFSGSKSGNTATLTISRAQAEDEADYYCQVWDDSTQAIVFGGGTKLTVL
notes: also called 25G9_VH

- kd IMPROVEMENT (against parent 21B3) [3]: 1.3
B15: 27G9 Fab (Fab, V domains shown)
VH: EVQLLESGGGLVQPGGSLRLSCAASGFTFRDYSASWVRQAPGKGLEWVSAISWSGDSTYYAESLKGRFTISRDNSKNTLYLQMNSLRAEDTAVYYCAKSWATPIESLYYYGSDYWGKGTLVTVSS
VL: SYELTQPLSVSVALGQTAKITCGGNNIGSQTAQWYQQKPGQAPVLVIYANNRRPSGIPERFSGSKSGNTATLTISRAQAEDEADYYCQVWEESTQAIVFGGGTHLTVL
notes: also called 27G9_VH
